Where a chain is given by its changes, count along the chain named. ± gives the standard deviation of the averaged measurements.
B1: library; a variant is named by its letters at X, in order (parent)
chain: MNIQIGELAKRTACPVVTIRFYEQEGLLPPPGRSRGNFRLYGEEHVERLQFIRHCRSLDMPLSXVRTLLSYRKRPDQDCGEVXMLLDEHIRQVESRIGALLELXHHXVELREACSGARPAQSCGILQXLSXCVCXTRGTTAHXSD
B2: library; a variant is named by its letters at X, in order (parent)
chain: B1 chain with I90X, H106X, X107L, X128G, X131D, X135D

What was measured:
[1] = variants of: B1; test: sfGFP reporter fluorescence (15 h) (µM FITC); higher = higher leak; settings: library round: Round 3; ligand: none
Procedure: (§1)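 Cell-free biosensing: 1 µL Echo-assembled CFE reactions with linear PbrR variant templates (5 nM) and pPbrR-sfGFP reporter, with 1 µM Pb, 30 µM Zn or no ligand; endpoint sfGFP fluorescence after 15 h at 30 °C calibrated as µM FITC. Round 3 ML-predicted PbrR mutants; up to 3 biological replicates.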

[2] = variants of: B1; test: sfGFP reporter fluorescence (15 h) (µM FITC); higher = stronger transcriptional activation; settings: library round: Round 3
Procedure: as §1

[3] = variants of: B2; test: sfGFP reporter fluorescence (15 h) (µM FITC); higher = higher leak; settings: library round: Round 3b; ligand: none
Procedure: as §1, with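 “3b rational combinatorial” for “3 ML-predicted”, “mutants;” for “mutants; up to”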

[4] = variants of: B2; test: sfGFP reporter fluorescence (15 h) (µM FITC); higher = stronger transcriptional activation; settings: library round: Round 3b
Procedure: as §1, with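 “3b rational combinatorial” for “3 ML-predicted”, “mutants;” for “mutants; up to”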

Variant | sfGFP reporter fluorescence [1] | sfGFP reporter fluorescence ([2]; ligand: 1 µM Pb) | sfGFP reporter fluorescence ([2]; ligand: 30 µM Zn) | sfGFP reporter fluorescence [3] | sfGFP reporter fluorescence ([4]; ligand: 1 µM Pb) | sfGFP reporter fluorescence ([4]; ligand: 30 µM Zn)
KNVCMDDP E81A | 2.21 ± 0.21 | 3.01 ± 0.4 | 2.71 ± 0.34 |  |  | 
KNMCMDDP P61N | 1.45 ± 0.17 | 2.43 ± 0.21 | 2.66 ± 0.22 |  |  | 
DTKLGMPP V108L | 0.0413 ± 0.00089 | 0.144 ± 0.0074 | 0.187 ± 0.0045 |  |  | 
DNKCGADY M60L | 1.36 ± 0.092 | 1.92 ± 0.1 | 2.58 ± 0.11 |  |  | 
DNKLHAPW L101V | 0.06686 ± 0.00034 | 0.307 ± 0.028 | 1.11 ± 0.06 |  |  | 
DSKLGHPY | 0.0395 ± 0.00071 | 0.112 ± 0.007 | 0.234 ± 0.033 |  |  | 
DTKLGSPP Q121A | 0.0408 ± 0.0027 | 0.186 ± 0.0074 | 0.3204 ± 0.0016 |  |  | 
KTVLIDDP P61T | 0.0467 ± 0.002 | 0.106 ± 0.0053 | 0.251 ± 0.023 |  |  | 
DNKCMDAA D87E | 0.936 ± 0.1 | 2.16 ± 0.15 | 2.28 ± 0.19 |  |  | 
KNVCMDDP M60L | 3.21 ± 0.26 | 3.58 ± 0.098 | 3.18 ± 0.16 |  |  | 
DNKCGAAP H54C C55P H106L | 0.04838 ± 0.00034 | 0.0446 ± 0.0014 | 0.0485 ± 0.0037 |  |  | 
KNKLGDAP P61N L62I V108E | 0.0795 ± 0.0049 | 0.275 ± 0.019 | 1.08 ± 0.098 |  |  | 
KNVCGADP M60L | 3.05 ± 0.41 | 3.59 ± 0.26 | 3.01 ± 0.067 |  |  | 
KNVCGDDP M60L E81A | 2.61 ± 0.12 | 3.41 ± 0.23 | 2.76 ± 0.4 |  |  | 
DTKLGCDA Q121A | 0.0408 ± 0.00071 | 0.107 ± 0.0045 | 0.117 ± 0.0042 |  |  | 
KNICMDDP M60L | 2.28 ± 0.1 | 3.14 ± 0.26 | 3.216 ± 0.027 |  |  | 
DTKCIDAK | 0.305 ± 0.035 | 1.87 ± 0.27 | 2.86 ± 0.33 |  |  | 
LNKCGAAP H54C C55P H106L | 0.0467 ± 0.0041 | 0.044 ± 0.0032 | 0.0477 ± 0.0034 |  |  | 
LILCGAAC V16C H54C C55P H106A | 0.0452 ± 0.0039 | 0.0421 ± 0.0021 | 0.0492 ± 0.0021 |  |  | 
DTKLGDPR V108L | 0.043 ± 0.0024 | 0.0866 ± 0.0042 | 0.142 ± 0.0031 |  |  | 
DIAVHR |  |  |  | 0.0454 ± 0.0066 | 0.104 ± 0.0012 | 0.0493 ± 0.0043
DIAVHT |  |  |  | 0.0457 ± 0.0036 | 0.102 ± 0.0083 | 0.0483 ± 0.0036
